The target of test [1] is human IgG Fc (human). The experiment in a line: method not given; given for comparison with the ELISA value. A general note: ELISA stands for enzyme-linked immunosorbent assay.
In test [2] the target is human IgG Fc (human). The experiment in a line: concentration-dependent ELISA, IgG Fc coated, apparent KD.
The target in test [3] is human IgG Fc (human). The experiment in a line: SPR (BIACORE), value before the coupling to PE.

B1: Affilin variation SPC1-A7BB (designed binder)
chain: MGLISFSEDRAFQGRRYMCLTDCPNLQPYFSRCNSINVWSGCWMIYERPNYQGHQYFLRRGEYPDYQQWMGLSDSIRSCCLIPPHSGAYRMKIYDRDELRGQMSELTDDCLSVQDRFHLTEIHSLNVLEGSWILYEMPNYRGRQYLLRPGEYRRFLDWGAPNAKVGSLRRVMDLYLEHHHHHH
B1: the Kd in test [1] was 280 nM.

B2: Affilin variation SPC1-A7_Cys (designed binder)
chain: MGLISFSEDRAFQGRRYMCLTDCPNLQPYFSRCNSINVWSGCWMIYERPNYQGHQYFLRRGEYPDYQQWMGLSDSIRSCCLIPPHSGAYRMKIYDRDELRGQMSELTDDCLSVQDRFHLTEIHSLNVLEGSWILYEMPNYRGRQYLLRPGEYRRFLDWGAPNAKVGSLRRVMDLYLESGGGGGGSCHHHHHHHHHH
With B2, the Kd in test [2] came out at 233 nM; in test [3] it was 100 nM.

Values taken from US20070248536A1.
